In patent US20230416410A1 (ZOETIS SERVICES, published 2023):
Read-outs that look alike come from different tables or passages of the source.

How the values were obtained:
[1] = molecular target: T1, complement component C1q (in bovine complement preserved serum) (bovine, UniProt Q5E9E3 23-244; Q2KIV9 23-247); assay: cell-based or functional assay
recombinant bovine FcgR2 [2] = molecular target: T2, recombinant bovine FcgR2 (bovine, UniProt Q28110 43-225, limits assumed, biotin on the BAP tag (BirA)); assay: SPR Biacore, biotinylated receptor on SA sensor, pH 7.4, 15 C
T2 construct: also called bFcgR2; bFcgRII
T2 sequence: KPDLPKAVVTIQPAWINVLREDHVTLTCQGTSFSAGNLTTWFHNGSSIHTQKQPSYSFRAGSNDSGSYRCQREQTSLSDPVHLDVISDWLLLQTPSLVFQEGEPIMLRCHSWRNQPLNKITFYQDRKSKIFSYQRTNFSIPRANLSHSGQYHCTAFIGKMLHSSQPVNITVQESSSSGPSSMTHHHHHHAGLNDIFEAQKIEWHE
Method: (§1) A Biacore SPR binding assay was designed to test the affinity of bovine IgG subclasses to bFcgR1, bFcgR2 and bFcgR3. All reported KD's were measured by Biacore (Cytiva, Marlborough, MA, USA) using series S SA sensor. Biotinylated-bovine FcgR1, R2 and R3 were captured on the sensor surface using a modified SA capture method to reach the desired surface density. 10 mM HEPES, 150 mM NaCl, 3 mM EDTA, 0.05% v/v surfactant P20, pH7.4 buffer was used as the running and titration buffer. Various concentrations of bovine CTLA4-Fc fusions or mAbs were titrated and flowed over the receptor surface and affinities were determined using Biacore T200 Evaluation software (Cytiva, Marlborough, MA, USA) with 1:1 binding model. The method of double referencing has been applied where the reference flow cell was subtracted from the flow cell containing immobilized receptors and blank runs containing buffer only were subtracted out from all runs. Flow cells were regenerated using 10 mM Glycine pH1.5. Runs were performed at 15° C.
(§2) The ability to knock out binding to bovine Fc gamma receptors was evaluated by comparing SPR Biacore bFcgR affinity of bIgG1a and bIgG1b wildtype Fc to the bIgG1a and bIgG1b mutations, described above. All mutations made to bIgG1 are identical for the a and b allotypes. Biacore methods for bFcgR1, R2, and R3 were performed as described in Example 1.

recombinant bovine FcgR1 = molecular target: T3, recombinant bovine FcgR1 (bovine, biotin on the BAP tag (BirA)); assay: as above
T3 construct: also called bFcgR1; bFcgRI
Method: as §1, §2

recombinant bovine FcgR3 = molecular target: T4, recombinant bovine FcgR3 (bovine, UniProt P79107 17-208, limits assumed, biotin on the BAP tag (BirA)); assay: as above
T4 construct: also called bFcgR3; bFcgRIII
T4 sequence: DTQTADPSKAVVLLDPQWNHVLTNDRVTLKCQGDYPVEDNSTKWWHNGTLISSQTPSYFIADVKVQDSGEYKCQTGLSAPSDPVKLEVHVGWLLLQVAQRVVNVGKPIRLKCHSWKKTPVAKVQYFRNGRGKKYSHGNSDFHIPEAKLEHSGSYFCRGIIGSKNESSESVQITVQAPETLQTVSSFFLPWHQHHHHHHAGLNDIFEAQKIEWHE
Method: as §1, §2

recombinant bovine FcgR2 [3] = molecular target: T2, recombinant bovine FcgR2; assay: as above; remark: listed apart in the source
Method: as §1
Biacore methods for bFcgR1, R2, and R3 were performed as described in Examples above. […] Although the two allotypes have different KDs for bFcgR2 and bFcgR3, both wildtype allotypes do bind. All of the mutations, bIgG3Win, bIgG3WinSAS, bIgG3SAS and bIgG3SAP for both the a and b allotypes knocked down binding to bFcgR1, bFcgR2 and bFcgR3 to negligible affinities. Thus, for knocking out receptor binding, the two allotypes compare similarly.

[4] = molecular target: T1, complement component C1q (in bovine …); assay: cell-based or functional assay; remark: listed apart in the source

T1 sequence (Q5E9E3 23-244, chain 1 of 2): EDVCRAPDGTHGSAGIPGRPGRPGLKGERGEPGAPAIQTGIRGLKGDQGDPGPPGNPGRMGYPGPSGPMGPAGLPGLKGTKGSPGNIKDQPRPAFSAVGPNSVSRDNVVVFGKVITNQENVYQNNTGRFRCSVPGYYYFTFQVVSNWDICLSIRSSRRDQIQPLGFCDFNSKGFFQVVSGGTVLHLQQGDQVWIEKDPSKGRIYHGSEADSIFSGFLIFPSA
T1 sequence (Q2KIV9 23-247, chain 2 of 2): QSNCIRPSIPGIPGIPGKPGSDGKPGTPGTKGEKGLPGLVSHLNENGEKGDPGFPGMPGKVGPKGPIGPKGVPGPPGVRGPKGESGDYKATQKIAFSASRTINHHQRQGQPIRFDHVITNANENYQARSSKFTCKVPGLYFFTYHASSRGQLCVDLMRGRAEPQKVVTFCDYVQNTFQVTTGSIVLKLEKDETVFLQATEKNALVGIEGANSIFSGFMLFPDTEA

B1: CTLA4 Fc bIgG1b (Fc fusion)
chain: DMHVAQPAVVLASSRGVASFVCEYGSSGNAAEVRVTVLRQAGSQMTEVCAATYTVEDELAFLDDSTCTGTSSGNKVNLTIQGLRAMDTGLYICKVELMYPPPYYVGMGNGTQIYVIDPEPCPDSDDPTCKPSPCDCCPPPELPGGPSVFIFPPKPKDTLTISGTPEVTCVVVDVGHDDPEVKFSWFVDDVEVNTATTKPREEQFNSTYRVVSALRIQHQDWTGGKEFKCKVHNEGLPAPIVRTISRTKGPAREPQVYVLAPPQEELSKSTVSLTCMVTSFYPDYIAVEWQRNGQPESEDKYGTTPPQLDADSSYFLYSKLRVDRNSWQEGDTYTCVVMHEALHNHYTQKSTSKSAGK
notes: No linker; also called bIgG1b wildtype; CTLA4 Fc bIgG1b wildtype
B1 was tested, and the “CDC EC50 Value” [1] was 0.036 mg/L, the Kd (recombinant bovine FcgR2 [2]) was 2.48 nM and the Kd (recombinant bovine FcgR1) was 0.463 nM. The Kd (recombinant bovine FcgR3) was 13.7 nM.

B2: CTLA4 Fc bIgG1bSAS (Fc fusion)
chain: DMHVAQPAVVLASSRGVASFVCEYGSSGNAAEVRVTVLRQAGSQMTEVCAATYTVEDELAFLDDSTCTGTSSGNKVNLTIQGLRAMDTGLYICKVELMYPPPYYVGMGNGTQIYVIDPEPCPDSDDPTCKPSPCDCCPPPELPGGPSVFIFPPKPKDTLTISGTPEVTCVVVDVGHDDPEVKFSWFVDDVEVNTATTKPREEQFNSTYRVVSALRIQHQDWTGGKEFKCKVHNEGLSASIVRTISRTKGPAREPQVYVLAPPQEELSKSTVSLTCMVTSFYPDYIAVEWQRNGQPESEDKYGTTPPQLDADSSYFLYSKLRVDRNSWQEGDTYTCVVMHEALHNHYTQKSTSKSAGK
notes: No linker
B2: no binding (recombinant bovine FcgR2 [2]).

B3: CTLA4 Fc bIgG1bWinSS (Fc fusion)
chain: DMHVAQPAVVLASSRGVASFVCEYGSSGNAAEVRVTVLRQAGSQMTEVCAATYTVEDELAFLDDSTCTGTSSGNKVNLTIQGLRAMDTGLYICKVELMYPPPYYVGMGNGTQIYVIDPEPCPDSDDPTCKPSPCDCCPPPEAAGAPSVFIFPPKPKDTLTISGTPEVTCVVVDVGHDDPEVKFSWFVDDVEVNTATTKPREEQFNSTYRVVSALRIQHQDWTGGKEFKCKVHNEGLPSSIVRTISRTKGPAREPQVYVLAPPQEELSKSTVSLTCMVTSFYPDYIAVEWQRNGQPESEDKYGTTPPQLDADSSYFLYSKLRVDRNSWQEGDTYTCVVMHEALHNHYTQKSTSKSAGK
notes: No linker
In the case of B3, the Kd (recombinant bovine FcgR1) is reported as 70.4 nM.

B4: CTLA4 Fc bIgG1bSAP (Fc fusion)
chain: DMHVAQPAVVLASSRGVASFVCEYGSSGNAAEVRVTVLRQAGSQMTEVCAATYTVEDELAFLDDSTCTGTSSGNKVNLTIQGLRAMDTGLYICKVELMYPPPYYVGMGNGTQIYVIDPEPCPDSDDPTCKPSPCDCCPPPELPGGPSVFIFPPKPKDTLTISGTPEVTCVVVDVGHDDPEVKFSWFVDDVEVNTATTKPREEQFNSTYRVVSALRIQHQDWTGGKEFKCKVHNEGLSAPIVRTISRTKGPAREPQVYVLAPPQEELSKSTVSLTCMVTSFYPDYIAVEWQRNGQPESEDKYGTTPPQLDADSSYFLYSKLRVDRNSWQEGDTYTCVVMHEALHNHYTQKSTSKSAGK
notes: No linker
B4: no binding (recombinant bovine FcgR2 [2]).

B5: CTLA4 Fc bIgG1bWin (Fc fusion)
chain: DMHVAQPAVVLASSRGVASFVCEYGSSGNAAEVRVTVLRQAGSQMTEVCAATYTVEDELAFLDDSTCTGTSSGNKVNLTIQGLRAMDTGLYICKVELMYPPPYYVGMGNGTQIYVIDPEPCPDSDDPTCKPSPCDCCPPPEAAGAPSVFIFPPKPKDTLTISGTPEVTCVVVDVGHDDPEVKFSWFVDDVEVNTATTKPREEQFNSTYRVVSALRIQHQDWTGGKEFKCKVHNEGLPAPIVRTISRTKGPAREPQVYVLAPPQEELSKSTVSLTCMVTSFYPDYIAVEWQRNGQPESEDKYGTTPPQLDADSSYFLYSKLRVDRNSWQEGDTYTCVVMHEALHNHYTQKSTSKSAGK
notes: No linker
With B5 the “CDC EC50 Value” [1] was 0.015 mg/L, the Kd (recombinant bovine FcgR2 [2]) was 3.24 nM and the Kd (recombinant bovine FcgR1) was 3.73 nM.

B6: CTLA4 Fc bIgG1bWinSAS (Fc fusion)
chain: DMHVAQPAVVLASSRGVASFVCEYGSSGNAAEVRVTVLRQAGSQMTEVCAATYTVEDELAFLDDSTCTGTSSGNKVNLTIQGLRAMDTGLYICKVELMYPPPYYVGMGNGTQIYVIDPEPCPDSDDPTCKPSPCDCCPPPEAAGAPSVFIFPPKPKDTLTISGTPEVTCVVVDVGHDDPEVKFSWFVDDVEVNTATTKPREEQFNSTYRVVSALRIQHQDWTGGKEFKCKVHNEGLSASIVRTISRTKGPAREPQVYVLAPPQEELSKSTVSLTCMVTSFYPDYIAVEWQRNGQPESEDKYGTTPPQLDADSSYFLYSKLRVDRNSWQEGDTYTCVVMHEALHNHYTQKSTSKSAGK
notes: No linker
B6: no binding (recombinant bovine FcgR2 [2]).

B7: CTLA4 Fc bIgG3bSAP (Fc fusion)
chain: DMHVAQPAVVLASSRGVASFVCEYGSSGNAAEVRVTVLRQAGSQMTEVCAATYTVEDELAFLDDSTCTGTSSGNKVNLTIQGLRAMDTGLYICKVELMYPPPYYVGMGNGTQIYVIDPEPCPDSDTARRPVPTTPKTTIPPGKPTTQESEVEKTPCQCSKCPEPLGGLSVFIFPPKPKDTLTISGTPEVTCVVVDVGQDDPEVQFSWFVDDVEVHTARTKPREEQFNSTYRVVSALRIQHQDWLQGKEFKCKVNNKGLSAPIVRTISRTKGQAREPQVYVLAPPREELSKSTLSLTCLITGFYPEEIDVEWQRNGQPESEDKYHTTAPQLDADGSYFLYSRLRVNKSSWQEGDHYTCAVMHEALRNHYKEKSISRSPGK
notes: No linker
B7: no binding (recombinant bovine FcgR2 [3]).

B8: CTLA4 Fc bIgG3bWin (Fc fusion)
chain: DMHVAQPAVVLASSRGVASFVCEYGSSGNAAEVRVTVLRQAGSQMTEVCAATYTVEDELAFLDDSTCTGTSSGNKVNLTIQGLRAMDTGLYICKVELMYPPPYYVGMGNGTQIYVIDPEPCPDSDTARRPVPTTPKTTIPPGKPTTQESEVEKTPCQCSKCPEAAGALSVFIFPPKPKDTLTISGTPEVTCVVVDVGQDDPEVQFSWFVDDVEVHTARTKPREEQFNSTYRVVSALRIQHQDWLQGKEFKCKVNNKGLPAPIVRTISRTKGQAREPQVYVLAPPREELSKSTLSLTCLITGFYPEEIDVEWQRNGQPESEDKYHTTAPQLDADGSYFLYSRLRVNKSSWQEGDHYTCAVMHEALRNHYKEKSISRSPGK
notes: No linker
B8 was tested, and the binding result (recombinant bovine FcgR2 [3]) was “no binding” and the “CDC EC50 Value” [4] was 0.062 mg/L.

B9: CTLA4 Fc bIgG3bWinSAS (Fc fusion)
chain: DMHVAQPAVVLASSRGVASFVCEYGSSGNAAEVRVTVLRQAGSQMTEVCAATYTVEDELAFLDDSTCTGTSSGNKVNLTIQGLRAMDTGLYICKVELMYPPPYYVGMGNGTQIYVIDPEPCPDSDTARRPVPTTPKTTIPPGKPTTQESEVEKTPCQCSKCPEAAGALSVFIFPPKPKDTLTISGTPEVTCVVVDVGQDDPEVQFSWFVDDVEVHTARTKPREEQFNSTYRVVSALRIQHQDWLQGKEFKCKVNNKGLSASIVRTISRTKGQAREPQVYVLAPPREELSKSTLSLTCLITGFYPEEIDVEWQRNGQPESEDKYHTTAPQLDADGSYFLYSRLRVNKSSWQEGDHYTCAVMHEALRNHYKEKSISRSPGK
notes: No linker
B9: no binding (recombinant bovine FcgR2 [3]).

B10: CTLA4 Fc bIgG3bSAS (Fc fusion)
chain: DMHVAQPAVVLASSRGVASFVCEYGSSGNAAEVRVTVLRQAGSQMTEVCAATYTVEDELAFLDDSTCTGTSSGNKVNLTIQGLRAMDTGLYICKVELMYPPPYYVGMGNGTQIYVIDPEPCPDSDTARRPVPTTPKTTIPPGKPTTQESEVEKTPCQCSKCPEPLGGLSVFIFPPKPKDTLTISGTPEVTCVVVDVGQDDPEVQFSWFVDDVEVHTARTKPREEQFNSTYRVVSALRIQHQDWLQGKEFKCKVNNKGLSASIVRTISRTKGQAREPQVYVLAPPREELSKSTLSLTCLITGFYPEEIDVEWQRNGQPESEDKYHTTAPQLDADGSYFLYSRLRVNKSSWQEGDHYTCAVMHEALRNHYKEKSISRSPGK
notes: No linker
B10: no binding (recombinant bovine FcgR2 [3]).
